The values that follow come from patent publication US5756343, “Cell stress transcriptional factors” (The United States of America as represented by the …, dated 1992).

In data set [1] the target is human HSF (HuHSF) (Homo sapiens) (UniProt Q00613). The conditions noted are these: in vitro transcription, Drosophila embryo extract.
Data set [2] has as its target T1, Drosophila HSF full length (pHSF WT) (Drosophila melanogaster) (UniProt P22813).
T1 sequence: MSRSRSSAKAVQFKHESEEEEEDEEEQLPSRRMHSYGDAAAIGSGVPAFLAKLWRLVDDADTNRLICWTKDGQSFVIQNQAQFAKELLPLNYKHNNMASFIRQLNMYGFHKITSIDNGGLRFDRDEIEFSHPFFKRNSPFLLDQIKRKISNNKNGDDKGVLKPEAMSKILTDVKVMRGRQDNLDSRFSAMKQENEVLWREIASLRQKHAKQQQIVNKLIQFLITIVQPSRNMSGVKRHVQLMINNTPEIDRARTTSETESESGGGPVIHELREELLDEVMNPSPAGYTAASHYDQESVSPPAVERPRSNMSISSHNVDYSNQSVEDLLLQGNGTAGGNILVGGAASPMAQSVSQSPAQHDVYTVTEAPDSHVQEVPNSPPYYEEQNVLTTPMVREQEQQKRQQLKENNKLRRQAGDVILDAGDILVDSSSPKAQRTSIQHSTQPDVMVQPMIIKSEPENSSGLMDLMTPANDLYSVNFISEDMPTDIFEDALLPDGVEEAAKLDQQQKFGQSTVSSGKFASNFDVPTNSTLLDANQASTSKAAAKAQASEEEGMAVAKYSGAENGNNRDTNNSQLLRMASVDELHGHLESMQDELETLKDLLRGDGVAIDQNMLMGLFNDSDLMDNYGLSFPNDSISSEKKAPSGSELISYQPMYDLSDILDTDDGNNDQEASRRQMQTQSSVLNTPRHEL
The settings on record: in vitro transcription, Drosophila embryo extract; scale: fold transcription vs template lacking HSEs.

The target of data set [3] is T2, Drosophila HSF expressed in Xenopus oocytes (Drosophila melanogaster) (UniProt P22813).
T2 sequence: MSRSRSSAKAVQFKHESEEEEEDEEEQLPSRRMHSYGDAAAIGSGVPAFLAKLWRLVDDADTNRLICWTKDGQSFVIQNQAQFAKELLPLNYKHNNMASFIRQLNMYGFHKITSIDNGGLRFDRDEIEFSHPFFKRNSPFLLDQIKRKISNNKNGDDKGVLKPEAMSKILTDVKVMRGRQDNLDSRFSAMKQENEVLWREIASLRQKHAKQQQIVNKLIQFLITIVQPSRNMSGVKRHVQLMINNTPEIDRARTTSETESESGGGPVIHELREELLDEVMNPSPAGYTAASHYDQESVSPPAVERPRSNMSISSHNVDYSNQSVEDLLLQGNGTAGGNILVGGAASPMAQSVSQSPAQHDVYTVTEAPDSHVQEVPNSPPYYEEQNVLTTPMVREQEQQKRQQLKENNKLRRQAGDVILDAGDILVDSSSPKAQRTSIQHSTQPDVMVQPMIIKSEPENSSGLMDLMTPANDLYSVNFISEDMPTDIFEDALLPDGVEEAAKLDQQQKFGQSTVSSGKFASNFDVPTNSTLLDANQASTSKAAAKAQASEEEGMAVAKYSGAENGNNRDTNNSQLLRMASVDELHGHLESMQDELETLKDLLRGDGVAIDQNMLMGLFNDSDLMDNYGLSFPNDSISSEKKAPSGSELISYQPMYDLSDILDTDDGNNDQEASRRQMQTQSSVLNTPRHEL
In words: EMSA. The settings on record: oocytes 36 C 10 min vs 18 C. For orientation: Mobility shift assays separate free from complexed probe on a gel.

Data set [4] deals with the molecule itself. In words: self-association: pore exclusion limit electrophoresis on a nondenaturing gradient gel, purified HSF from E. coli. Here is the method: The gel was stained with Coomassie Blue. […] (B) Pore exclusion limit analysis of the HSF:^32P-HSE complex. 3 µl of Drosophila SL-2 cell cytosol (lanes 1,2) and 0.5 µl of an extract *E. coli* expressing HSF (lanes 3,4) were heat shocked (+) in vitro at 34° C. or incubated at 0° C. (−) for 10 min. The samples were incubated for 10 min with ^32P-labeled HSE tinder standard gel shift conditions, and electrophoresed on a nondenaturing, 3–12% polyacrylamide gradient gel until the limit of migration. The gel was stained with Coomassie Blue, dried and subjected to autoradiography. The positions of marker proteins are indicated. (C) Glutaraldehyde cross-linking of cloned HSF. Purified HSF (2 µg/10 µl) was treated for 5 min at room temperature with glutaraldehyde as indicated. After quenching, about 1 µg of cross-linked HSF was separated on a 4–6% SDS polyacrylamide gel, and silver stained. The minor polypeptides below the 105 kD HSF protein probably represent degradation products. […] Cross-linked products were analyzed by SDS gel electrophoresis as above.
EXAMPLE 5 Recombinant Drosophila HSF Expressed in *E. coli*. Associates as a Hexamer in Solution The apparent molecular mass of recombinant HSF, purified from *E. coli* extracts, was determined to be about 105 KD by SDS polyacrylamide gel electrophoresis (see FIG. 6).

The target of another data set is T3, Drosophila HSF 1-241 (Drosophila melanogaster, UniProt P22813 SEQ:1-241).
T3 chain: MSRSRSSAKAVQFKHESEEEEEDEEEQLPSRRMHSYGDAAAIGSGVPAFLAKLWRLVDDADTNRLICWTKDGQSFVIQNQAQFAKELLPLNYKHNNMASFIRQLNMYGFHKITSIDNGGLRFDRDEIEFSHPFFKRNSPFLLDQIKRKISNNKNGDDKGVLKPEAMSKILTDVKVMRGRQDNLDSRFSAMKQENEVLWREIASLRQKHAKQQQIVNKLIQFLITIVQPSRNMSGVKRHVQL
Briefly: footprint. The conditions noted are these: tags: E. coli BL21(DE3) extract; label: 32P 5' end. The source says:
(§1) Figure 7A: FIGS. 7A, 7B, and 7C represent the deletion analysis of HSF. (A) Schematic drawing of full-length HSF open reading frame (pHSF WT) and three deletion mutants PHSF 1-367, 1-241, and 1-163. All numbers refer to amino acid positions. The open bars represent HSF coding sequences; the shaded regions A–D represent sequences conserved between Drosophila and yeast HSF. The solid boxes indicate the φ10 promoter (T_7), the Shine-Delgarno (SD) sequence, and the transcription terminator (T) of the expression vector. (B) SDS polyacrylamide gel analysis of wild-type and mutant HSF polypeptides. Mutants were expressed in BL21 (DE3) in the presence of ^35S-methionine (20 µCi/ml). 0.1 ml of culture was precipitated and the pellet was denatured at 100° C. in 10 µl of Laemmli sample buffer. Samples were electrophoresed on a 15% polyacrylamide gel and visualized by fluorography. The arrows pointing left indicate HSF polypeptides. A 26 kD protein (arrowhead) was also labeled in all samples, including *E. coli* transformed with the expression vector alone. (C) DNase I protection analysis of HSF mutants. A labeled fragment from the hsp70 promoter was incubated with the indicated amounts of wild-type or mutant HSF proteins. Footprinting reactions were performed essentially as described in FIG. 3C. Figure 7B: Figure 7C: […]

A further data set concerns the target T4, Drosophila HSF 1-367 (Drosophila melanogaster, UniProt P22813 SEQ:1-367).
T4 chain: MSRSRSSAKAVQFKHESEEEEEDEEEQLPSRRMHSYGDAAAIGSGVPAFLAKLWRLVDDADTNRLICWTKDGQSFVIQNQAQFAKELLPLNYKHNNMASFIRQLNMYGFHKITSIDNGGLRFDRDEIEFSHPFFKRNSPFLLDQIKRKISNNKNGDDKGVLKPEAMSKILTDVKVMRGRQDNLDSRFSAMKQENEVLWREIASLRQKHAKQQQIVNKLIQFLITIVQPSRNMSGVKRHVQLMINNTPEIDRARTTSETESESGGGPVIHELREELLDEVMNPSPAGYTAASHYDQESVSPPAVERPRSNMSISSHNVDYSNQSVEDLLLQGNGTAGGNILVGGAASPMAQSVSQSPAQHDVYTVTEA
Briefly: footprint. The conditions noted are these: tags: E. coli BL21(DE3) extract; label: 32P 5' end.
Source text: as §1

The target of a further data set is T5, Drosophila HSF 1-163 (Drosophila melanogaster, UniProt P22813 SEQ:1-163).
T5 chain: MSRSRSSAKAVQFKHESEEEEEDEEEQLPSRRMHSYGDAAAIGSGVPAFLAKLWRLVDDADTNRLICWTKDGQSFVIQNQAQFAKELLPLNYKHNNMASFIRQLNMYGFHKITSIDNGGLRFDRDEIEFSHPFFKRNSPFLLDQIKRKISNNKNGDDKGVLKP
Briefly: footprint; estimated from protein concentration for about 50% binding. The conditions noted are these: tags: E. coli BL21(DE3) extract; label: 32P 5' end. The procedure:
as §1, with “All” for “Figure 7A: FIGS. 7A, 7B, and 7C represent the deletion analysis of HSF. (A) Schematic drawing of full-length HSF open reading frame (pHSF WT) and three deletion mutants PHSF 1-367, 1-241, and 1-163. All”

Chain of human HSF (HuHSF) (Homo sapiens) (Q00613 whole entry): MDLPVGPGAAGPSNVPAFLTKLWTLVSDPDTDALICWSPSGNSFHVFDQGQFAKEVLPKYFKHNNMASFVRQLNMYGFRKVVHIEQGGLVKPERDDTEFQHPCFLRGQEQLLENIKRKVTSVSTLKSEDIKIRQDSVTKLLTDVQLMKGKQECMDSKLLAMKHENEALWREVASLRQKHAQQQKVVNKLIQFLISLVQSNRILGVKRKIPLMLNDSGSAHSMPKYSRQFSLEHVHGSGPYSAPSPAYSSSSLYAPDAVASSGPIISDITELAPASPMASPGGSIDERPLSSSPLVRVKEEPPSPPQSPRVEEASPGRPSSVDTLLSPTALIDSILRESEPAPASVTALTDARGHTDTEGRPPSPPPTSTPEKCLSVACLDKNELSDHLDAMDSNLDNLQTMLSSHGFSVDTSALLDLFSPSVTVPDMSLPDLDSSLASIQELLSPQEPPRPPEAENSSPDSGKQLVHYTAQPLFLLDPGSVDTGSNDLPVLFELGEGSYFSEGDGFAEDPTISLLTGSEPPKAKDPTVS

Take phsp70(-50)HSE2 template: in data set [1], the activity (fold transcription stimulation) came to 6. This molecule also showed an activity in data set [2] of 7.
“synthetic HSE with three -GAA- repeats in alternating orientation” had a binding signal (fold increase on heat shock) in data set [3] of 5.

B1: recombinant Drosophila heat shock factor (HSF), full-length, expressed in E. coli (pHSFWT) or translated in vitro in rabbit reticulocyte lysate (other)
chain: MSRSRSSAKAVQFKHESEEEEEDEEEQLPSRRMHSYGDAAAIGSGVPAFLAKLWRLVDDADTNRLICWTKDGQSFVIQNQAQFAKELLPLNYKHNNMASFIRQLNMYGFHKITSIDNGGLRFDRDEIEFSHPFFKRNSPFLLDQIKRKISNNKNGDDKGVLKPEAMSKILTDVKVMRGRQDNLDSRFSAMKQENEVLWREIASLRQKHAKQQQIVNKLIQFLITIVQPSRNMSGVKRHVQLMINNTPEIDRARTTSETESESGGGPVIHELREELLDEVMNPSPAGYTAASHYDQESVSPPAVERPRSNMSISSHNVDYSNQSVEDLLLQGNGTAGGNILVGGAASPMAQSVSQSPAQHDVYTVTEAPDSHVQEVPNSPPYYEEQNVLTTPMVREQEQQKRQQLKENNKLRRQAGDVILDAGDILVDSSSPKAQRTSIQHSTQPDVMVQPMIIKSEPENSSGLMDLMTPANDLYSVNFISEDMPTDIFEDALLPDGVEEAAKLDQQQKFGQSTVSSGKFASNFDVPTNSTLLDANQASTSKAAAKAQASEEEGMAVAKYSGAENGNNRDTNNSQLLRMASVDELHGHLESMQDELETLKDLLRGDGVAIDQNMLMGLFNDSDLMDNYGLSFPNDSISSEKKAPSGSELISYQPMYDLSDILDTDDGNNDQEASRRQMQTQSSVLNTPRHEL
Regarding B1, in data set [4], the binding result is listed as “binds”.

B2: hsp70 promoter (-100 to +10 printed) (dsDNA)
DNA 1: AAACGGCACACTGTTCTCGTTGCTTCGAGAGAGCGCGCCTCGAATGTTCGCGAAAAGAGCGCCGGAGTATAAATAGAGGCGCTTCGTCGACGGAGCGTCAATTCAATTCA
DNA 2: TGAATTGAATTGACGCTCCGTCGACGAAGCGCCTCTATTTATACTCCGGCGCTCTTTTCGCGAACATTCGAGGCGCGCTCTCTCGAAGCAACGAGAACAGTGTGCCGTTT
As to B2, the figures for the binding signal with Drosophila HSF 1-241, with Drosophila HSF 1-367 and with Drosophila HSF 1-163 were ≤ 2 fold difference vs full length, ≤ 2 fold difference vs full length and 50 fold lower affinity vs full length, respectively.
